The results in this text go back to article PMC9649962, “Early diagnosis of bladder cancer by photoacoustic imaging of tumor-targeted gold nanorods” (Photoacoustics, 2022).

The target in assay [1] is α5β1 integrin on human bladder cancer 5637 cells (human (endogenous in 5637)) (UniProt P08648).
For assay [2], the target named is α5β1 integrin on murine bladder cancer MB49-Luc cells (mouse (endogenous in MB49-Luc)) (UniProt P11688).
Assay [3] has the same target. This is another data set of the same source.
Assay [4] addresses Wild-type human integrin α5β1 (octyl β-D-glucopyranoside preparation) (human) (UniProt P08648). In words: ELISA; α5β1 (4 μg/ml) coated on PVC microtiter plates; Iso4-HRP or ARA-HRP 0–400 nM in 25 mM Tris-HCl pH 7.4, 150 mM sodium chloride, 1 mM magnesium chloride, 1 mM manganese chloride, 1% BSA, 2 h; no detergent; bound peroxidase by OPD, absorbance at 490 nm; effect of urine: Iso4-HRP 300 nM mixed with human urine (11.5–90%).

A further assay relates to MB49-Luc cells. The experiment in a line: Cell adhesion to GNR-coated plates, MB49-Luc. It is filed as cell-based, murine. As to conditions: excess of free Iso4, plates coated with 250 µg/ml GNRs@Chit-Iso4. Here is the method: (§1) The plates were washed and blocked with 2% BSA in DMEM or RPMI-1640 (200 μl/well, 1 h). MB49-Luc and 5637 cells were detached with DPBS-E, washed twice with DPBS, and suspended in DMEM or RPMI-1640 containing 0.1% BSA (binding buffer-3), and added to the coated-plates (1.5 ×10^5 cells/well, 100 μl). After 1–2 h of incubation at 37 °C, 5% CO2, the plates were washed with binding buffer-3. Adherent cells were fixed and stained with 0.5% crystal violet in 20% methanol. After washing with water, the dye was extracted from cells using a 10% acetic acid solution (140 μl/well) and the absorbance at 570 nm was measured using a microplate reader.

A further assay deals with 5637 cells. In words: Cell adhesion to GNR-coated plates, 5637. It is filed as cell-based, human. As to conditions: excess of free Iso4, plates coated with 250 µg/ml GNRs@Chit-Iso4. Here is the method: as §1
In assay [5] the test system is MB49-Luc orthotopic bladder tumor. In words: In vivo PAI of orthotopic MB49-Luc bladder tumor. As to conditions: co-administration of excess free peptide (296 µg) with GNRs@Chit-Iso4 (1.5 nmol Au); two mice per condition. The arrangement: species or system mouse. The method, then: All procedures and studies involving mice were approved by the Institutional Animal Care and Use Committee of San Raffaele Scientific Institute and performed according to the prescribed guidelines (IACUC, approval number 942). Female albino C57BL/6 J mice (9 weeks old, weighing about 20 g, Charles River Laboratories, Italy) were anesthetized with ketamine (80 mg/kg) and xylazine (15 mg/kg) and kept in dorsal position. Using a 24-gauge catheter, the bladder of each mouse was emptied and instilled with or without MB49-Luc cells (10^5 cells/100 μl in DPBS). Thirty minutes later the catheter was removed, and mice were allowed to recover and returned to their cage. Tumor growth was monitored by measuring the tumor volume through US imaging (see below) and in vivo bioluminescent quantification after administration of luciferin (15 mg/kg, intra peritoneum) using the non-invasive In Vivo Imaging System (IVIS, PerkinElmer, USA). […]

Chain of UniProt P11688 (P11688 45-1053, chain 1 of 2): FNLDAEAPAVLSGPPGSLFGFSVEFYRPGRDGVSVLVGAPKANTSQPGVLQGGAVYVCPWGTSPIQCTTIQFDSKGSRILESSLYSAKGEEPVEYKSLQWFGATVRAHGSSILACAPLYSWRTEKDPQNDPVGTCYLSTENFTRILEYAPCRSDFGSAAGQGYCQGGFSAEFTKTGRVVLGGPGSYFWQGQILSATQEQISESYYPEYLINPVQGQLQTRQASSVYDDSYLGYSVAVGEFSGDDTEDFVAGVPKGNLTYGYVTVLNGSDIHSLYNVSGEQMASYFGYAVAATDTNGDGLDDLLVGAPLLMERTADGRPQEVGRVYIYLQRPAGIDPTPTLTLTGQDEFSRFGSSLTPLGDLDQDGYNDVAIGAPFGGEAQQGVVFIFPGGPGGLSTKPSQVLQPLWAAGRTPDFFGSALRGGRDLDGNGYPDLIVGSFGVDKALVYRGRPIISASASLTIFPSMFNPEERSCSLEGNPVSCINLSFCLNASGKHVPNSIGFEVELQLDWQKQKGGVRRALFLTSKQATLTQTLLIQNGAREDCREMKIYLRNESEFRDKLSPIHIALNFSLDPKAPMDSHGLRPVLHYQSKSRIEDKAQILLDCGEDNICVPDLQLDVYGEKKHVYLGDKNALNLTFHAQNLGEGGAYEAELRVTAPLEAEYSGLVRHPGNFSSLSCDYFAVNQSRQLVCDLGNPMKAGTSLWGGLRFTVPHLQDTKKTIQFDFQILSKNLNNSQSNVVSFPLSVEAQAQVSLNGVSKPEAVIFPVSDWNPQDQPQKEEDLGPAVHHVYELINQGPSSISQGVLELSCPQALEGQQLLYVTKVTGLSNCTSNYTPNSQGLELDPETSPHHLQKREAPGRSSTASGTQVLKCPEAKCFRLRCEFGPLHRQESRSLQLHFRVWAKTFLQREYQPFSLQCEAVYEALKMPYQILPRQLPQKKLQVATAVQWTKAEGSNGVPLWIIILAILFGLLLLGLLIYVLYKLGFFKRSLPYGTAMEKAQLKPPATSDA
Chain of UniProt P11688 (P09055 21-798, chain 2 of 2, further chain): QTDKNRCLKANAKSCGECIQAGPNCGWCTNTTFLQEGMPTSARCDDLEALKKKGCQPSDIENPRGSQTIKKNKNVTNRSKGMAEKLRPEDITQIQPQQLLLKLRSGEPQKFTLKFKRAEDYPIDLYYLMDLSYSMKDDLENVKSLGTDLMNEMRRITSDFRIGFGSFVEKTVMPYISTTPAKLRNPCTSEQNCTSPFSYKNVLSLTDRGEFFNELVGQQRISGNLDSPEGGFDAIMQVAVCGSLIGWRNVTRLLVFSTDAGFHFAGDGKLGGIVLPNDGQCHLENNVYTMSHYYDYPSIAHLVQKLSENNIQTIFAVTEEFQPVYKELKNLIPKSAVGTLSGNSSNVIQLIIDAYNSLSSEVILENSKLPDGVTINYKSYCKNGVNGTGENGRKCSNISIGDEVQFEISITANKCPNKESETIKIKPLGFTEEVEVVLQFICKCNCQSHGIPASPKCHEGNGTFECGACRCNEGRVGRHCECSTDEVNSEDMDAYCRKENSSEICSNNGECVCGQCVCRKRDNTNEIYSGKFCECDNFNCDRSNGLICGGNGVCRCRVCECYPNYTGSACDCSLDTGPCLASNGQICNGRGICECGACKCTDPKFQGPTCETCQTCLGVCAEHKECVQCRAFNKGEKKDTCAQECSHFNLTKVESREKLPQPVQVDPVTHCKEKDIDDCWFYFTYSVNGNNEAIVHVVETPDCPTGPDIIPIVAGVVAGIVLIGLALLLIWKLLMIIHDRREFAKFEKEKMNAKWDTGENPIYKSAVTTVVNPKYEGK
Chain of UniProt P08648 (P08648 42-1049, chain 1 of 2): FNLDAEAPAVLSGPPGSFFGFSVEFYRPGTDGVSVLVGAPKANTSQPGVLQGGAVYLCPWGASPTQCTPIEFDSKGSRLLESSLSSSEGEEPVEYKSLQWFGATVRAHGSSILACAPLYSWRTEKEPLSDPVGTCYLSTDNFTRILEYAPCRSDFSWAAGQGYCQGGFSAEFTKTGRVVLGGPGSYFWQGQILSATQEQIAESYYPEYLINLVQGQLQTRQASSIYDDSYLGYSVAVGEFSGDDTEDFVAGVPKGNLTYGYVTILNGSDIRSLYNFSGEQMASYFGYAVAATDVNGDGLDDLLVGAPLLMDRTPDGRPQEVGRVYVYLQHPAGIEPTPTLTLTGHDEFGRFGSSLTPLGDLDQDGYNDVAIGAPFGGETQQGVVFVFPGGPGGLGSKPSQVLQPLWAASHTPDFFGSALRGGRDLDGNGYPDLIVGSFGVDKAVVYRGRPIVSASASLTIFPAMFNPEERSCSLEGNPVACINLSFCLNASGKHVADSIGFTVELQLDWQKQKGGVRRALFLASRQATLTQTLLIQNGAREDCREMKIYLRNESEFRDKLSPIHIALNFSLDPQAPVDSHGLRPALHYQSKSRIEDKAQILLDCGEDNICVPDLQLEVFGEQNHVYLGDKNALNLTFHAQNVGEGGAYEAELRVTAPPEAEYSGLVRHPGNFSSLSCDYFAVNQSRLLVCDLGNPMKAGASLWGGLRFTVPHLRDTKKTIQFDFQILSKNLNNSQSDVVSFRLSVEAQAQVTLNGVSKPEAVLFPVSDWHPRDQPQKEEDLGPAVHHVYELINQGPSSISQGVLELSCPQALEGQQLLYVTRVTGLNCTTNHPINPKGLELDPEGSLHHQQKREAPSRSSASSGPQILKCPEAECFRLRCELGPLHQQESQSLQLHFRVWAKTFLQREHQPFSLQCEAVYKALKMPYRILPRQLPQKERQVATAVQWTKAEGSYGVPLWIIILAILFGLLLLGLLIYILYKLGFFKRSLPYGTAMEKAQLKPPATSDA
Chain of UniProt P08648 (P05556 21-798, chain 2 of 2, further chain): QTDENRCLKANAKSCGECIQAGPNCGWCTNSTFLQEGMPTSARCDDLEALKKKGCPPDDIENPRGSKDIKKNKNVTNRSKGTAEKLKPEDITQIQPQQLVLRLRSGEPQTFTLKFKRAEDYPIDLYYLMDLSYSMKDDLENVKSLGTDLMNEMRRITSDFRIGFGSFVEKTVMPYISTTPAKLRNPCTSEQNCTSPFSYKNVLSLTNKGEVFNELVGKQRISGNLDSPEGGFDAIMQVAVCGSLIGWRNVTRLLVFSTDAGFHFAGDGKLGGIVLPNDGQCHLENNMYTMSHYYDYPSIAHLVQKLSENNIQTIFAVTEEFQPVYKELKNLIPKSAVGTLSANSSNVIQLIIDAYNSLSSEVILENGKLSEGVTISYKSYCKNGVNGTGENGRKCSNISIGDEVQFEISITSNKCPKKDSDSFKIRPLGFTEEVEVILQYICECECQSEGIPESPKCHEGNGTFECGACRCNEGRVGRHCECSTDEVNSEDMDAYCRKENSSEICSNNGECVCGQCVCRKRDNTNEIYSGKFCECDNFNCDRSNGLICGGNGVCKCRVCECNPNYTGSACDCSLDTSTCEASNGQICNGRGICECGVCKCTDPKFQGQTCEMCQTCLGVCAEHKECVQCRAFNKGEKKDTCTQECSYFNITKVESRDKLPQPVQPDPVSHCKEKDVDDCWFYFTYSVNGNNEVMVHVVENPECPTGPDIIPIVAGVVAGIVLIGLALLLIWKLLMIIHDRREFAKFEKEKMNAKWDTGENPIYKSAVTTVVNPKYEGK

On to “GNRs@Chit-Iso4 (chitosan-coated gold nanorods functionalized with Iso4 through a maleimide-PEG12-NHS linker) (peptide)”, for which, in assay [1], the EC50 of adhesion of 5637 cells to plates coated with GNRs@Chit-Iso4 was 1.3 µg/mL. The same substance returned an EC50 of adhesion of MB49-Luc cells to plates coated with GNRs@Chit-Iso4 in assay [2] of 0.73 µg/mL. The increase of MB49-Luc cell adhesion to GNRs@Chit-Iso4-coated plates in DMEM containing 25–75% human urine in assay [3] came to 20%.

For the substance “Iso4-HRP (head-to-tail cyclized peptide c(CphgisoDGRG), Iso4, conjugated to maleimide-activated horseradish peroxidase)”, the recovery of binding in 90% human urine in assay [4] is 55%.

Consider c(CphgisoDGRG) (head to tail) [Iso4], for which the “inhibition of cell adhesion by free peptide” value with MB49-Luc cells and in the assay with 5637 cells was “completely inhibited cell adhesion” each time. The “effect of free peptide on tumor binding of GNR@Chit-Iso4” value in assay [5] is on record as “reduced by co-administration of an excess of free Iso4 peptide”.
